From the supplement of paper PMC9732359
± gives the uncertainty stated by the source.

Test: protein stability index of a GFP-peptide fusion (yeast GPS) (PSI 1-4); higher = more stable; sorted into four equal gates, so the index is relative within each strain
Method in brief: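 Sequencing reads from sorted gates were used to score each peptide. The library consisted of tiled 17-residue yeast protein peptides fused downstream of GFP on a Cherry-expressing plasmid, pooled and carried in yeast. Mid-log cultures in leucine-free medium were split into four equal gates by GFP/Cherry ratio, and each gate's plasmids were PCR-amplified and Illumina-sequenced. The protein stability index adds up, over all gates, the read frequency multiplied by the gate number.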

Sequence	protein stability index (doa10∆)	protein stability index (pdr5∆)	protein stability index (san1∆)	protein stability index (ubr1∆)
KKLPRKTHRGLRKVACI [RPL3]	1.61 ± 0.062	3.5 ± 0.098	2.65 ± 0.064	3.23 ± 0.058
LSDRANKNQDAFEAELS [ARP9]	3.28 ± 0.072	3.13 ± 0.08	3.04 ± 0.07	3.31 ± 0.057
SSFNKRSKFLSTVAKFL [IRR1]	2.76 ± 0.052	2.28 ± 0.054	2.08 ± 0.067	2.4 ± 0.035
ILEDDFAVALKNEPDYS [CDC53]	3.3 ± 0.088	3.09 ± 0.14	3.24 ± 0.072	2.87 ± 0.12
PQPLFMEDPPSTVSGEL [YMR153W/NUP53]	3.38 ± 0.2	3.64 ± 0.19	3.58 ± 0.11	3.12 ± 0.16
IPIGHVHVIHFQHADNS [AAR2]	2.86 ± 0.11	2.71 ± 0.073	2.9 ± 0.074	2.65 ± 0.05
TAAQVANVELTPSNIRS [RPC34]	2.79 ± 0.1	2.82 ± 0.071	2.8 ± 0.085	2.87 ± 0.093
PFHDPEARLFNIWGTVR [ECM29]	1.33 ± 0.26	1.43 ± 0.22		
LLDNEIRIFRSELQRLS [RPT5]	2.4 ± 0.26		3.09 ± 0.076	3.03 ± 0.21
NSNINTLTASPDGTLIA [ASC1]	2.88 ± 0.078	2.68 ± 0.061	2.88 ± 0.061	2.82 ± 0.046
MSANGFAADGDALVKRF [PRE7]	3.35 ± 0.26	3.4 ± 0.23	2.9 ± 0.21	3.41 ± 0.053
LKVLSEHLDCMNFISKE [PCI8]	2.72 ± 0.09	3.14 ± 0.099	3.2 ± 0.047	3.03 ± 0.061
FVNETPRVIEPVYTAQW [PRP8]	1.57 ± 0.16	2.31 ± 0.15	2.19 ± 0.16	1.19 ± 0.1
SKRSKIDIINKLILHAI [YML103C/NUP188]	1.23 ± 0.13	1.23 ± 0.11	1.04 ± 0.13	1.1 ± 0.079
LTSNLSNYSRTMTISHL [YJL039C/NUP192]	2.56 ± 0.074	2.32 ± 0.061	1.98 ± 0.084	2.48 ± 0.04
GIEYNRVTNTTSTDFPG [RPC40]	3.33 ± 0.22	3.33 ± 0.14	2.73 ± 0.082	2.94 ± 0.096
VKGRENELLLPSELNQL [RPC82]			3.35 ± 0.13	
SHDKKTKCSTVVKASEL [SRP14]	3.02 ± 0.18	3.46 ± 0.22	3.05 ± 0.17	3.33 ± 0.11
VPTVPPSQSEEQKGQMA [MED4]	2.78 ± 0.12	2.82 ± 0.058	3 ± 0.067	2.6 ± 0.091
AAELQEKPLTPLKYTKL [SNF6]	2.94 ± 0.13	3.02 ± 0.13	2.39 ± 0.17	2.78 ± 0.13
TFLSEWGMEPLEDYVPH [RPB2]	3.17 ± 0.1	3.71 ± 0.23	3.13 ± 0.12	2.81 ± 0.14
LGLCLVIQIVTGIFMAM [COB]	1.36 ± 0.053	1.2 ± 0.045	1.23 ± 0.13	1.42 ± 0.045
NKVVVNLNDAGLALQLF [RPN2]	2.28 ± 0.084	2.19 ± 0.12	2.68 ± 0.12	1.85 ± 0.091
PQGFSSVERGRKRAHSL [REC8]	3.38 ± 0.11	3.4 ± 0.12	3.36 ± 0.048	3.19 ± 0.067
NKLNFIVDDKQEMIDIL [DIB1]	3.37 ± 0.099	3.01 ± 0.17	2.9 ± 0.15	3 ± 0.12
EDDEFEDFPIDTWANGE [SEM1]	3.32 ± 0.098	3.26 ± 0.11	2.85 ± 0.11	3.03 ± 0.078
MPKKRASNGRNKKGRGH [RPS26A]	3.3 ± 0.17	3.43 ± 0.19	2.82 ± 0.24	3.5 ± 0.083

Sequence	protein stability index (doa10∆)	protein stability index (pdr5∆)	protein stability index (san1∆)	protein stability index (ubr1∆)
CKSLISENEDTKDLLSK [CSE2]	3.23 ± 0.098	3.21 ± 0.093	3.1 ± 0.066	3.22 ± 0.12
TYEAIDVPGRELKYELI [RPB2]	3.01 ± 0.15	3.13 ± 0.098	3.1 ± 0.18	3.81 ± 0.16
SRRTVNKEMETQRIMTN [YLR018C/POM34]	3.51 ± 0.12	3.15 ± 0.29	3.22 ± 0.26	3.1 ± 0.2
SSTYYNLDYLFELIELV [NUT1]		2.62 ± 0.17	2.78 ± 0.15	
IVAALPISEKGLTLSTT [RPP1]	2.11 ± 0.087	2.61 ± 0.063	2.65 ± 0.057	2.48 ± 0.094
KERLVRDKKEKKQAQKQ [SMB1]	3.25 ± 0.097	3.21 ± 0.086	2.82 ± 0.14	3.3 ± 0.086
VPVKLEEIKTVDPASAP [RRP6]	2.83 ± 0.13	2.56 ± 0.16	2.87 ± 0.17	2.79 ± 0.11
SDIVLDKKVTLITSEMF [SIN4]	1.69 ± 0.085	1.92 ± 0.13	1.79 ± 0.11	2.14 ± 0.073
YFKMFPASKHDKEVVYF [RPC34]	2.72 ± 0.16	3.2 ± 0.093	3.26 ± 0.075	3.4 ± 0.19
IWNDVVYGEGTSRVTGI [YJL039C/NUP192]	3.35 ± 0.15	3.4 ± 0.17		3.45 ± 0.091
LLLKLASPHASVRTAVF [ECM29]	1.88 ± 0.048	1.87 ± 0.043	1.57 ± 0.063	1.49 ± 0.029
FQKFLTGHPKGAAGAWM [FAS2]	1.31 ± 0.25			1.56 ± 0.18
STFENRNVGKTLVNKST [RPS1A]	2.91 ± 0.085	2.74 ± 0.059	3.09 ± 0.055	3.14 ± 0.068
NDGNNRTNNVPMIKAEE [NUT1]	3.05 ± 0.17	3.31 ± 0.14	2.65 ± 0.17	3.77 ± 0.16
EELRGQQTEHETEIKDL [SMC4]	3.34 ± 0.13	3.43 ± 0.094	3.48 ± 0.067	3.37 ± 0.053
GIHDGHIKKLLHQYYGD [FAS1]	1.44 ± 0.045	1.8 ± 0.051	1.85 ± 0.098	1.31 ± 0.03
APQLFPYGSFHQQQLQQ [DSN1]	2.77 ± 0.076	2.84 ± 0.09	2.77 ± 0.087	3.15 ± 0.069
SDPESERPAIEFETPTF [RPN14]	3.13 ± 0.054	3.11 ± 0.055	3.02 ± 0.047	3.15 ± 0.053
PSCVYNLIGVITHQGAN [UBP6]	2.64 ± 0.14	2.9 ± 0.13	2.99 ± 0.13	2.48 ± 0.18
DSTSHNNGSSDKSLDSS [MED1]	3.04 ± 0.062	3.11 ± 0.067	3.08 ± 0.07	3.08 ± 0.046
EPPAGVALPPGSNYNPY [CYT1]	2.77 ± 0.12	3.13 ± 0.076	2.83 ± 0.12	3.15 ± 0.047
IQEFLVVIEKRRKKILN [GRR1]	2.92 ± 0.091	2.74 ± 0.097	2.88 ± 0.083	2.94 ± 0.088
ECYKQLFLTAPDSCNMQ [YCS4]	2.42 ± 0.11	2.21 ± 0.16	2.85 ± 0.12	2.5 ± 0.083
ENTKDNLVKEKEALQNN [SMC1]	3.51 ± 0.12	3.26 ± 0.13	3.45 ± 0.13	
ISNGTINIQKKLEPKEI [SIR4]	2.77 ± 0.079	2.89 ± 0.075	2.37 ± 0.089	3 ± 0.1
FIPNKQLNCVIDRVNGI [RPN7]	2.47 ± 0.13	2.75 ± 0.21	2.73 ± 0.18	3.08 ± 0.18
ENAYDNPLADAEEALEP [PRE4]	3.1 ± 0.086	3 ± 0.082	3.1 ± 0.063	3.13 ± 0.057
